In patent CN113234143A:

Target: HBV表面抗原蛋白 (HBsAg) (Hepatitis B virus)
Experiment: SPR, Biacore 3000; 7E5 captured by AHC on a CM5 chip, HBsAg as analyte in 2-fold dilutions from 40 nM to 0 nM

Kd: 21.5 nM | koff: 0.000445 s⁻¹ | kon: 20700 M⁻¹ s⁻¹
B1: 抗HBsAg单克隆抗体7E5 (antibody, V domains shown)
VH: EVQLQQSGPELVKPGASVKMSCKASGYTFTARGYNWVRQSHGKSLEWIGGINCRPTAMSPEDLVKDKATLTVDKSSNTVYMEFRSLTLEDSAIYFCARRECPINQGDYWGQGTIFTVSS
VL: EIVLTQSPALMAASPGEKVTITCGCARNTIWNNVGWYQQKSETSPKPWIYWASLFGKGVPVRFSGSGSGTSYSLTISSMEAEDAATYYCQDIQENWTPFGAGTKLELK
